# Experimental data from the supplement of paper PMC10567573.
# B1: CLPTM1 (parent)
# chain: MNLHVYISEHEHFTDFNATSALFW
# Variants of: B1
# Experiment: protein stability index of a GFP-peptide fusion (GPS, HEK-293T) (PSI 1-6); higher = more stable
# Settings: c terminus: a fixed tail appended
# 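Note: lentivirally expressed fusions sorted by FACS into six bins by GFP to DsRed ratio, PSI derived from sequencing read proportions per bin multiplied by bin number.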
row,Variant,protein stability index
1,MNLHVYISEHEHFTDDNATSALFW [F16D],1.79
2,MNLHVYISEHEHFTDENATSALFW [F16E],2.87
3,MNLHVYISEGEHFTDFNATSALFW [H10G],2.58
4,MNLHVYISETEHFTDFNATSALFW [H10T],3.76
5,MNLHVYISESEHFTDFNATSALFW [H10S],2.59
6,MNLHVYISEMEHFTDFNATSALFW [H10M],2.73
7,MNLHVYISEDEHFTDFNATSALFW [H10D],2.41
8,MNLHVYISEEEHFTDFNATSALFW [H10E],2.77
9,MNLHVYISEPEHFTDFNATSALFW [H10P],2.64
10,MNLHVYISEIEHFTDFNATSALFW [H10I],1.28
11,MNLHVYISECEHFTDFNATSALFW [H10C],2.77
12,MNLHVYISEVEHFTDFNATSALFW [H10V],1.99
13,MNLHVYISTHEHFTDFNATSALFW [E9T],2.48
14,MNLHVYISKHEHFTDFNATSALFW [E9K],2.52
15,MNLHVYISGHEHFTDFNATSALFW [E9G],4.46
16,MNLHVYISLHEHFTDFNATSALFW [E9L],1.96
17,MNLHVYISMHEHFTDFNATSALFW [E9M],3.76
18,MNLHVYISVHEHFTDFNATSALFW [E9V],3.22
19,MNLHVYISAHEHFTDFNATSALFW [E9A],2.82
20,MNLHVYISYHEHFTDFNATSALFW [E9Y],2.5
21,MNLHVYISNHEHFTDFNATSALFW [E9N],3.59
22,MNLHVYISPHEHFTDFNATSALFW [E9P],1.5
23,MNLHVYISFHEHFTDFNATSALFW [E9F],2.28
24,MNLHVYISHHEHFTDFNATSALFW [E9H],4.25

row,Variant,protein stability index
1,MNLHVYISQHEHFTDFNATSALFW [E9Q],2.96
2,MNLHVKISEHEHFTDFNATSALFW [Y6K],3.26
3,MNLHVFISEHEHFTDFNATSALFW [Y6F],2.84
4,MNLHVDISEHEHFTDFNATSALFW [Y6D],2.1
5,MNLHVCISEHEHFTDFNATSALFW [Y6C],2.52
6,MNLHVTISEHEHFTDFNATSALFW [Y6T],4.82
7,MNLHVRISEHEHFTDFNATSALFW [Y6R],3.35
8,MNLHVPISEHEHFTDFNATSALFW [Y6P],1.49
9,MNLHVQISEHEHFTDFNATSALFW [Y6Q],2.4
10,MNLHVHISEHEHFTDFNATSALFW [Y6H],2.59
11,MNLHVIISEHEHFTDFNATSALFW [Y6I],2.61
12,MNLHVEISEHEHFTDFNATSALFW [Y6E],2.93
13,MNLHVAISEHEHFTDFNATSALFW [Y6A],2.15
14,MNLHVNISEHEHFTDFNATSALFW [Y6N],2.22
15,MNLHVLISEHEHFTDFNATSALFW [Y6L],3.45
16,MNLHVSISEHEHFTDFNATSALFW [Y6S],3.07
17,MNMHVYISEHEHFTDFNATSALFW [L3M],2.18
18,MNPHVYISEHEHFTDFNATSALFW [L3P],1.52
19,MNIHVYISEHEHFTDFNATSALFW [L3I],3.08
20,MNRHVYISEHEHFTDFNATSALFW [L3R],1.96
21,MNSHVYISEHEHFTDFNATSALFW [L3S],2.15
22,MNFHVYISEHEHFTDFNATSALFW [L3F],2.7
23,MNQHVYISEHEHFTDFNATSALFW [L3Q],1.42
24,MNWHVYISEHEHFTDFNATSALFW [L3W],1.98

row,Variant,protein stability index
1,MNGHVYISEHEHFTDFNATSALFW [L3G],2.78
2,MNNHVYISEHEHFTDFNATSALFW [L3N],1.2
3,MNEHVYISEHEHFTDFNATSALFW [L3E],2.62
4,MNKHVYISEHEHFTDFNATSALFW [L3K],1.9
5,MNCHVYISEHEHFTDFNATSALFW [L3C],1.94
6,MNTHVYISEHEHFTDFNATSALFW [L3T],1.47
7,MNVHVYISEHEHFTDFNATSALFW [L3V],1.14
8,MNDHVYISEHEHFTDFNATSALFW [L3D],2.44
9,MNLHVYIPEHEHFTDFNATSALFW [S8P],3.32
10,MNLHVYIREHEHFTDFNATSALFW [S8R],3.37
11,MNLHVYIIEHEHFTDFNATSALFW [S8I],1.69
12,MNLHVYIHEHEHFTDFNATSALFW [S8H],3.35
13,MNLHVYIWEHEHFTDFNATSALFW [S8W],3.59
14,MNLHVYIDEHEHFTDFNATSALFW [S8D],3.18
15,MNLHVYILEHEHFTDFNATSALFW [S8L],2.96
16,MNLHVYITEHEHFTDFNATSALFW [S8T],2.08
17,MNLHVYIYEHEHFTDFNATSALFW [S8Y],2.98
18,MNLHVYESEHEHFTDFNATSALFW [I7E],2.48
19,MNLHVYVSEHEHFTDFNATSALFW [I7V],3.33
20,MNLHVYSSEHEHFTDFNATSALFW [I7S],2.45
21,MNLHVYKSEHEHFTDFNATSALFW [I7K],2.96
22,MNLHVYHSEHEHFTDFNATSALFW [I7H],1.79
23,MNLHVYASEHEHFTDFNATSALFW [I7A],2.6
24,MNLHVYMSEHEHFTDFNATSALFW [I7M],3.09

row,Variant,protein stability index
1,MNLHVYFSEHEHFTDFNATSALFW [I7F],2.58
2,MNLHVYWSEHEHFTDFNATSALFW [I7W],2.65
3,MNLHVYGSEHEHFTDFNATSALFW [I7G],2.92
4,MNLHVYNSEHEHFTDFNATSALFW [I7N],3.55
5,MNLHVYDSEHEHFTDFNATSALFW [I7D],2.53
6,MNLHVYRSEHEHFTDFNATSALFW [I7R],3.14
7,MNLHVYYSEHEHFTDFNATSALFW [I7Y],4.01
8,MNLHVYCSEHEHFTDFNATSALFW [I7C],2
9,MNLHVYLSEHEHFTDFNATSALFW [I7L],2.45
10,MNLHVYISEHEQFTDFNATSALFW [H12Q],1.98
11,MNLHVYISEHELFTDFNATSALFW [H12L],1.41
12,MNLHVYISEHECFTDFNATSALFW [H12C],2.72
13,MNLHVYISEHETFTDFNATSALFW [H12T],2.1
14,MNLHVYISEHEMFTDFNATSALFW [H12M],2.39
15,MNLHVYISEHEPFTDFNATSALFW [H12P],2.64
16,MNLHVYISEHEYFTDFNATSALFW [H12Y],2.77
17,MNLHVYISEHEWFTDFNATSALFW [H12W],3.67
18,MNLHVYISEHEFFTDFNATSALFW [H12F],3.38
19,MNLHVYISEHESFTDFNATSALFW [H12S],1.83
20,MNLHVYISEHVHFTDFNATSALFW [E11V],4.02
21,MNLHVYISEHFHFTDFNATSALFW [E11F],3.56
22,MNLHVYISEHDHFTDFNATSALFW [E11D],2.39
